This note sets out measurements from the Immune Epitope Database (IEDB).

One assay deals with HLA-B*40:01. The assay is described as follows: IEDB peptide-MHC binding, purified MHC/direct/fluorescence; filed as Kd, often an IC50 or EC50 that approximates it; ≥ and ≤ were set here for values at or beyond the usual limits of such assays. The conditions noted are these: source organism: SARS-CoV1.
The next assay deals with HLA-A*26:01. Put plainly: IEDB peptide-MHC binding, purified MHC/competitive/radioactivity; filed as Kd, often an IC50 or EC50 that approximates it; ≥ and ≤ were set here for values at or beyond the usual limits of such assays.
A further assay has as its target HLA-A*23:01. The description is as above.
Another assay deals with HLA-A*29:02. Described as above.
The next assay concerns the target HLA-A*30:02. The description is as above.
The target in a further assay is HLA-A*24:02. The assay is described as above.
Assay [1] deals with HLA-A*01:01. The description is as above.
For another assay, the target named is HLA-B*44:02. Described as above. The following applies: source organism: Dengue virus 3 Martinique/1243/1999.
Another assay has as its target HLA-A*68:01. The description is as above.
The target of assay [2] is HLA-A*03:01. The description is as above.
Assay [3] deals with HLA-A*11:01. The description is as above.
For another assay, the target named is HLA-A*31:01. The assay is described as above.
Another assay has as its target HLA-A*33:01. The description is as above.
The target in a further assay is HLA-B*15:01. Put plainly: IEDB peptide-MHC binding, purified MHC/direct/fluorescence; filed as Kd, often an IC50 or EC50 that approximates it; ≥ and ≤ were set here for values at or beyond the usual limits of such assays. The following applies: source organism: SARS-CoV1.
The target in assay [4] is HLA-A*11:01. The description is as above. The following applies: source organism: SARS-CoV1.
For another assay, the target named is HLA-B*58:01. The description is as above. The conditions noted are these: source organism: SARS-CoV1.
Assay [5] concerns the target HLA-A*03:01. The description is as above. The following applies: source organism: SARS-CoV1.
Assay [6] concerns the target HLA-A*01:01. Described as above. The following applies: source organism: SARS-CoV1.
Setting [7] is: source organism: SARS coronavirus Tor2.
The mark [8] stands for this setting: source organism: Dengue virus 3 Martinique/1243/1999.
Where [9] appears, read: source organism: Vaccinia virus WR.
Setting [10] is: source organism: Mammarenavirus machupoense.
[11] abbreviates: source organism: Mammarenavirus lassaense.
The mark [12] stands for this setting: source organism: Mammarenavirus whitewaterense.
Where [13] appears, read: source organism: Triticum aestivum.

Bounds are passed on as bounds.

As for AEDMLNPNY, the Kd (usually the constant that tells how readily two partners part at equilibrium) with HLA-B*40:01 was 4.39 µM; in the assay with HLA-A*26:01 (setting [7]), at least 86.9 µM; with HLA-A*23:01 (setting [7]) it was at least 77.8 µM; with HLA-A*29:02 (setting [7]) it was 3.8 µM; with HLA-A*30:02 (setting [7]), 12.9 µM; in the assay with HLA-A*24:02 (setting [7]), at least 77.6 µM. Further, the Kd with HLA-A*01:01 [1] (setting [7]) was at least 87.7 µM.
On to AFNCTFEYI, for which the Kd with HLA-A*26:01 (setting [7]) was 0.0861 µM; with HLA-A*23:01 (setting [7]), 9.36 µM; with HLA-A*29:02 (setting [7]), 0.322 µM; in the assay with HLA-A*30:02 (setting [7]), 1.4 µM; with HLA-A*24:02 (setting [7]), at least 70.3 µM; with HLA-A*01:01 [1] (setting [7]), 1.4 µM.
Consider AWMVHRQWFF, for which the Kd with HLA-A*23:01 (setting [8]) is 0.00948 µM; with HLA-B*44:02 it was 2.21 µM; in the assay with HLA-A*24:02 (setting [8]), 0.0047 µM.
As to AYLRKHFSM, the Kd with HLA-A*26:01 (setting [7]) was at least 77.9 µM; with HLA-A*23:01 (setting [7]), at least 24.4 µM; in the assay with HLA-A*29:02 (setting [7]) it was 6.29 µM; in the assay with HLA-A*30:02 (setting [7]), at least 75 µM; with HLA-A*24:02 (setting [7]), at least 83.3 µM; in the assay with HLA-A*01:01 [1] (setting [7]) it was at least 78.1 µM.
As for DLIKKSDAKR, the Kd in the assay with HLA-A*68:01 (setting [9]) is 0.0139 µM; with HLA-A*29:02 (setting [9]), 0.0287 µM; in the assay with HLA-A*03:01 [2] (setting [9]), 6.37 µM; with HLA-A*11:01 [3] (setting [9]), 12.5 µM; with HLA-A*31:01 (setting [9]), 0.00396 µM; in the assay with HLA-A*33:01 (setting [9]), 0.00897 µM.
Regarding EMICFHEFL, the Kd in the assay with HLA-A*23:01 (setting [10]) is 6.96 µM; in the assay with HLA-A*29:02 (setting [10]) it was 11.3 µM; with HLA-A*24:02 (setting [10]), at least 40.9 µM.
For ESDSKPQKV, the Kd was at least 77.9 µM in the assay with HLA-A*26:01 (setting [11]); at least 77.7 µM with HLA-A*23:01 (setting [11]); at least 78.9 µM with HLA-A*29:02 (setting [11]); at least 76.9 µM with HLA-A*30:02 (setting [11]); at least 77.5 µM with HLA-A*24:02 (setting [11]); 0.18 µM with HLA-A*01:01 [1] (setting [11]).
With FTILCLVPAY, the Kd is 0.0106 µM with HLA-A*26:01 (setting [7]); at least 70 µM with HLA-A*23:01 (setting [7]); 0.0155 µM with HLA-A*29:02 (setting [7]); 0.329 µM in the assay with HLA-A*30:02 (setting [7]); at least 70.3 µM with HLA-A*24:02 (setting [7]); 0.456 µM with HLA-A*01:01 [1] (setting [7]).
FYVSSIFLHL: the values for the Kd with HLA-A*23:01 (setting [12]), with HLA-A*29:02 (setting [12]) and with HLA-A*24:02 (setting [12]) were 0.00855 µM, 0.0109 µM and 0.114 µM, respectively.
For GPDDQIGYY, the Kd with HLA-A*26:01 (setting [7]) is 11 µM; with HLA-A*23:01 (setting [7]), at least 77.8 µM; with HLA-A*29:02 (setting [7]), 6.49 µM; in the assay with HLA-A*30:02 (setting [7]) it was 2.45 µM; in the assay with HLA-A*24:02 (setting [7]), at least 77.6 µM; with HLA-A*01:01 [1] (setting [7]), at least 79.4 µM.
As to GYKNVRITF, the Kd with HLA-A*26:01 (setting [7]) was at least 54.1 µM; in the assay with HLA-A*23:01 (setting [7]), 11 µM; with HLA-A*29:02 (setting [7]), 3.7 µM; in the assay with HLA-A*30:02 (setting [7]), at least 23.1 µM; with HLA-A*24:02 (setting [7]) it was 6.99 µM; in the assay with HLA-A*01:01 [1] (setting [7]), at least 78.1 µM.
Consider KSQVLQQSTY, for which the dissociation constant Kd in the assay with HLA-A*68:01 (setting [13]) is at least 70.2 µM; in the assay with HLA-A*26:01 (setting [13]) it was at least 102 µM; in the assay with HLA-A*23:01 (setting [13]), at least 39 µM; with HLA-A*29:02 (setting [13]) it was 12 µM; with HLA-A*03:01 [2] (setting [13]), at least 21.7 µM; with HLA-A*30:02 (setting [13]) it was 0.26 µM. Moreover, the Kd was at least 70.3 µM with HLA-A*24:02 (setting [13]); at least 22.1 µM with HLA-A*11:01 [3] (setting [13]); at least 47.2 µM with HLA-A*31:01 (setting [13]); at least 70 µM with HLA-A*33:01 (setting [13]); 0.678 µM in the assay with HLA-A*01:01 [1] (setting [13]).
As to LQSLENVAY, the Kd with HLA-B*15:01 was 0.161 µM; with HLA-A*11:01 [4], at least 44.7 µM; with HLA-A*26:01 (setting [7]) it was at least 81.5 µM; in the assay with HLA-A*23:01 (setting [7]), at least 77.8 µM; in the assay with HLA-A*29:02 (setting [7]) it was 6.67 µM; in the assay with HLA-A*30:02 (setting [7]), 0.617 µM. Besides, the Kd with HLA-A*24:02 (setting [7]) is at least 77.6 µM; with HLA-A*01:01 [1] (setting [7]), at least 42.3 µM.
As for LSDDAVVCY, the Kd in the assay with HLA-B*58:01 was 0.3 µM; with HLA-A*03:01 [5] it was 9.26 µM; in the assay with HLA-B*15:01, 0.474 µM; in the assay with HLA-A*11:01 [4], at least 22.3 µM; with HLA-A*01:01 [6], 0.0175 µM; with HLA-A*26:01 (setting [7]) it was at least 80.3 µM. The dissociation constant Kd was at least 77.8 µM with HLA-A*23:01 (setting [7]), 1 µM with HLA-A*29:02 (setting [7]), 1.45 µM with HLA-A*30:02 (setting [7]) and at least 77.6 µM with HLA-A*24:02 (setting [7]).
